The results in this text go back to patent US20140227292A1 (PROTHENA BIOSCIENCES, published 2014).

Experiment [1] has as its target T1, human MCAM (melanoma cell adhesion molecule), expressed on transfected CHO cells (human, UniProt P43121 24-646).
T1 construct: also called hMCAM; CD146
T1 chain: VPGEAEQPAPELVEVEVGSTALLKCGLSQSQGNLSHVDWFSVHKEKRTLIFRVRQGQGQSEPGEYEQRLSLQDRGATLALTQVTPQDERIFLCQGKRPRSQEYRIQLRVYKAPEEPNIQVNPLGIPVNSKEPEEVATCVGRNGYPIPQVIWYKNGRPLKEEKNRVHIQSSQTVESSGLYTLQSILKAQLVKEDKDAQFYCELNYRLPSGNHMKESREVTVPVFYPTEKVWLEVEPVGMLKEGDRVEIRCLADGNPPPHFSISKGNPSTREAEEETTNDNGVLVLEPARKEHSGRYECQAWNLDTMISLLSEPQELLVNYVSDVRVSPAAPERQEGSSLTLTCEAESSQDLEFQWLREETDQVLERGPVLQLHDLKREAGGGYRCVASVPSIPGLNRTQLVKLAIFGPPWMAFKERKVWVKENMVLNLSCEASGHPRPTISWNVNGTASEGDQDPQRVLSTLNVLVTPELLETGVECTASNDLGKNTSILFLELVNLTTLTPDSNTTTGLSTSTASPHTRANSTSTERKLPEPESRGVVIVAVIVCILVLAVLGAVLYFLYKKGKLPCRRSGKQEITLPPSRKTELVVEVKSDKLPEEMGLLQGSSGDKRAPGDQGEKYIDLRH
The experiment in a line: blocking assay of the re-expressed antibodies (Table 7 'Blocking IC50'; laminin/FACS assay of paragraph 438): % inhibition of laminin 411 binding to hMCAM-expressing CHO cells. The procedure:
Following incubation for 30-45 minutes, the cells were washed and anti-laminin conjugated to AF650 (NovusBio) was added to detect the bound laminin. The cells were run on a flow cytometer to measure the laminin binding signal.
In general terms: In flow cytometry, cells or beads pass a laser one at a time.

For experiment [2], the target named is recombinant human laminin 411 (Biolamina) (human, UniProt Q16363 25-1823; P07942 22-1786; P11047 34-1609). The experiment is described as follows: SPR, Biacore T200, steady state, Fc-tagged MCAM IgG1-2A captured by anti-Fc, laminin as analyte. For orientation: In SPR one partner is held on a chip, and binding of the other changes the refractive index at the surface.

A word on the Kd: it is the free concentration of one partner at which half of the binding sites on the other are occupied at equilibrium, for simple one-to-one binding.

B1: h2107_VH2 + h2107_VL2 (antibody, V domains shown)
VH: QVTLKESGPVLVKPTETLTLTCTVSGFSLTSNGVSWVRQPPGKALEWIAAISSGGSTYYNSAFKSRLSISRDTSKSQVVLTMTNMDPVDTATYYCARHRPFYFDYWGQGTLVTVSS
VL: DIQMTQSPSSLSASVGDRVTITCKGSQNIYKSLAWFQLKPGKVPKLLIYDANSLQTGIPSRFSGSGSGTDFTLTISSLQPEDVATYYCQQYYSGYTFGGGTKVEIK
notes: also called h2107VH2VL2; VH2VL2
As to B1, in experiment [1], the “IC50 (read off the curve)” value is roughly 0.8 µg/mL.

B2: Recombinant human Fc-tagged MCAM IgG1-2A (human MCAM domains 1 and 2, amino acids 19-242) (Fc fusion)
chain: PRVAGVPGEAEQPAPELVEVEVGSTALLKCGLSQSQGNLSHVDWFSVHKEKRTLIFRVRQGQGQSEPGEYEQRLSLQDRGATLALTQVTPQDERIFLCQGKRPRSQEYRIQLRVYKAPEEPNIQVNPLGIPVNSKEPEEVATCVGRNGYPIPQVIWYKNGRPLKEEKNRVHIQSSQTVESSGLYTLQSILKAQLVKEDKDAQFYCELNYRLPSGNHMKESREVT
notes: also called human MCAM IgG1-2A; MCAM Fc domains 1 and 2; not shown: human Fc tag
As to B2, the Kd in experiment [2] worked out at 66 nM.

B3: chimeric 1749 (antibody, V domains shown)
VH: DVKLVESGGDLVKPGGSLKLSCAASGFTFSSYIMSWVRQTPEKRLEWVATISSGGSSTYYPDSVKGRFTISRDNAKNTLYLQMSSLKSEDTAMYYCTRDDDYDVKVFAYWGQGTLVTVSA
VL: DIVMSQSPSSLAVSAGEKVTMNCKSSRSLLNSRIRKNYLAWYQQKPGQSPKLLIYWASTRESGVPDRFTGSGSGTDFTLTISSVQAEDLAVYYCKQSYNLLTFGAGTKLELK
On to B3, for which, in experiment [1], the “IC50 (read off the curve)” value is roughly 0.4 µg/mL.

B4: chimeric 2107 (antibody, V domains shown)
VH: QVQLKESGPGLVQSSQTLSLTCTVSGFSLTSNGVSWVRQPPGKGLEWIAAISSGGSTYYNSAFKSRLSISRNTSKSQVLLKMNSLQTEDTGMYFCARHRPFYFDYWGQGVMVTVSS
VL: DIQVTQSPSLLSASVGDRVTLNCKGSQNIYKSLAWFRLKRGEAPKLLIYDANSLQTGIPSRFSGSGSGTDFTLTITSLQPEDVATYFCQQYYSGYTFGAGTKLELK
For B4, the “IC50 (read off the curve)” value in experiment [1] is roughly 0.5 µg/mL.
